Reference: patent publication US8273357B2, “Antigen-carbohydrate conjugates” (Massachusetts Institute of Technology, priority 2004, dated 2012)
“Also recorded” adds a separate entry of the source.

Legend:
[1] = biological target: T1, mannose receptor (Homo sapiens, UniProt P22897); details: cited from earlier work
T1 sequence (P22897 19-1456): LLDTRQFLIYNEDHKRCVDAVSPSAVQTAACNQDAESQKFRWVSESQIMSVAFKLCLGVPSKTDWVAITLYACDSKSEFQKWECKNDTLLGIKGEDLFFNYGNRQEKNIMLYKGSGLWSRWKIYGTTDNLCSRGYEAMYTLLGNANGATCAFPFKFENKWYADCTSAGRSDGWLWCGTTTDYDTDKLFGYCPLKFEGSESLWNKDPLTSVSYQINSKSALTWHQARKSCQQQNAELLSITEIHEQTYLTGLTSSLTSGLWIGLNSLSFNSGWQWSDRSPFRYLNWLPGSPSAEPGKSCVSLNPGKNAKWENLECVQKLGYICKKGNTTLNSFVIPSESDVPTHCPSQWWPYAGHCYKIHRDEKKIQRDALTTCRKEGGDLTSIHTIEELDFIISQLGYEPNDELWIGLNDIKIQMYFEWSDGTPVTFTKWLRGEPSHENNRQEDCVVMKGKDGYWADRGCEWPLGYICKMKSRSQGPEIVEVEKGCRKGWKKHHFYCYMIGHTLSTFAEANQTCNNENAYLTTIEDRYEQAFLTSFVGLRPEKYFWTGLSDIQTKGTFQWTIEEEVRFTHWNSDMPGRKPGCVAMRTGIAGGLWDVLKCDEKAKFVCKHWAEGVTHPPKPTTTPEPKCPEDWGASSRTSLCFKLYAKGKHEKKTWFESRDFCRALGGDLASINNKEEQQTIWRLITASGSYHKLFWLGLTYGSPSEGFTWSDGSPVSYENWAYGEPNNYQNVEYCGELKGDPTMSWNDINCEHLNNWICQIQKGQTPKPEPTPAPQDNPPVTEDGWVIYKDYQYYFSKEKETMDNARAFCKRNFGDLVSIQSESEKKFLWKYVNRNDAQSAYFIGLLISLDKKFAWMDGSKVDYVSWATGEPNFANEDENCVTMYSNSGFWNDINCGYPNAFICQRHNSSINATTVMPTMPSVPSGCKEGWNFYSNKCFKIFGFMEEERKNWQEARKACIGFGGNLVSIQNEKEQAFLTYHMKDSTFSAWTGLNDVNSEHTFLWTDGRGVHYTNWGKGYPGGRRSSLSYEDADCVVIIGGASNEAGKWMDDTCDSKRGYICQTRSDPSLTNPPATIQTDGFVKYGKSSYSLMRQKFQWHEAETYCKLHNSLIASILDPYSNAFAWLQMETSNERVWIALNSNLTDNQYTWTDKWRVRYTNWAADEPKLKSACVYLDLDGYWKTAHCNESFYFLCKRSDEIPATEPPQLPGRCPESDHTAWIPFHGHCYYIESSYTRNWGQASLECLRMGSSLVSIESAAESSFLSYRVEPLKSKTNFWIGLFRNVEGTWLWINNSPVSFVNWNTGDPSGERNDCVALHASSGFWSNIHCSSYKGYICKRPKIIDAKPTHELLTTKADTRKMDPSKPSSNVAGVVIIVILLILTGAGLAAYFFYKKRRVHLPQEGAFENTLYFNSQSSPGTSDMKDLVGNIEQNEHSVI

[2] = system: OTII T cells; assay: Adoptive transfer of OTII cells, subcutaneous immunization, FACS count of donor T cells; type: in vivo, mouse; details: 200 ng subcutaneous
Description: FIGS. 6A, 6B, and 6C are a schematic diagram (FIG. 6A) and a series of flow cytometry dot plots (FIGS. 6B and 6C). FIG. 6A is a schematic diagram that illustrates the adoptive transfer technique: CD4^+CD45.2^+ ovalbumin-specific T cells are adoptively transferred to congenic CD45.1^+ recipients. After immunization the draining lymph nodes and other lymphoid organs (e.g., the spleen) are isolated. Cells from these tissues are stained with an antibody against the CD45.2 isoform and the OTII T cell receptor to identify the original donor cells. […] B6.Ly5.2/Cr mice were injected intravenously with 2×10^7 OTII splenocytes. 24 hours later the mice were injected subcutaneously with PBS, OVA (200 ng), or (OVA)-3-1 (200 ng). […] Each panel represents two or more experiments.
In order to determine the immunological implications of (OVA)-3-1 internalization and presentation by dendritic cells in vivo, the technique of adoptive transfer (FIG. 6A) was employed to track the T cell responses to DC presented antigen^15. […]
CD45.2^+ VA-specific T cells were transferred to B6.Ly5.2/Cr (CD45.1^+) recipients and, after a twenty-four hour rest period, the mice were immunized subcutaneously with PBS, OVA or (OVA)-3-1. After seventy-two hours, cells were isolated from the draining inguinal lymph nodes and counted by FACS to determine the extent of OTII cell division induced by the immunization regimen (FIG. 6B). […]

[3] = system: purified T cells; assay: Addition to purified T cells in the absence of antigen-presenting cells; type: cell-based, mouse; details: no antigen-presenting cells

Molecule | ligand for the mannose receptor [1] | total OTII cell number in the draining lymph node compared to soluble OVA ([2]; 72 h) | total OTII cell number in the spleen ([2]; 3 days) | T cell proliferation [3]
mBSA: BSA modified with approximately 25 mannose residues per protein molecule [reference compound] | nanomolar ligand |  |  | 
(OVA)-3-1: ovalbumin modified via SMCC with nonasaccharide 3-1, average of three saccharides per OVA (conjugate) GSIGAASMEFCFDVFKELKVHHANENIFYCPIAIMSALAMVYLGAKDSTRTQINKVVRFDKLPGFGDSIEAQCGTSVNVHSSLRDILNQITKPNDVYSFSLASRLYAEERYPILPEYLQCVKELYRGGLEPINFQTAADQARELINSWVESQTNGIIRNVLQPSSVDSQTAMVLVNAIVFKGLWEKAFKDEDTQAMPFRVTEQESKPVQMMYQIGLFRVASMASEKMKILELPFASGTMSMLVLLPDEVSGLEQLESIINFEKLTEWTSSNVMEERKIKVYLPRMKMEEKYNLTSVLMAMGITDVFSSSANLSGISSAESLKISQAVHAAHAEINEAGREVVGSAEAGVDAASVSEEFRADHPFLFCIKHIATNAVLFFGRCVSP |  | doubling; also recorded: promotes expansion | appreciable increase | did not led to T cell proliferation
